B1: CPEB3 Ribozyme (parent)
chain: UAACAGGGGGCCACAGCAGAAGCGUUCACGUCGCAGCCCCUGUCAGAUUCUGGUGAAUCUGCGAAUUCUGCUGUAUAUCUC

Variants of: B1
Assay: self-cleavage, relative activity (ratio to wild type); higher = more cleavage; in vitro, sequencing
Procedure, shortened: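 Barcoded CPEB3 ribozyme mutants, produced by rounds of error-prone PCR, self-cleaved while being transcribed with T7 RNA polymerase for 5 hours at 37°C and during a subsequent 15 min DNase I step before EDTA was added. Sequencing of template-switched cDNA on Illumina gave cleaved and total reads, and DNA sequencing assigned barcodes to variants. Each variant's relative activity is its cleaved/total read fraction divided by the unmutated ribozyme's fraction, averaged across three batches. A variant needed a minimum of 5 reads.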

Going from A28G C34A to A28G C34G, the self-cleavage rises from 0.32 to 0.35.

Compared with A28G C34U, A28G C37A is lower in self-cleavage: 0.32 for the first, 0.21 for the second.

First: A28G C37U
Second: A28G C38A
The self-cleavage of the first is higher: 0.43 for the first, 0.29 for the second.

Going from A28G C38G to A28G C38U, the self-cleavage rises from 0.25 to 0.54.

Compared with A28G C39A, A28G C39U is higher in self-cleavage: 0.06 for the first, 0.57 for the second.

Going from A28G C40G to A28G C40U, the self-cleavage rises from 0.22 to 0.48.

Going from A28G C44A to A28G C44U, the self-cleavage rises from 0.12 to 0.28.

Compared with A28G C50A, A28G C50G is lower in self-cleavage: 0.48 for the first, 0.29 for the second.

Going from A28G C50U to A28G C59A, the self-cleavage falls from 0.48 to 0.2.

Going from A28G C59U to A28G C62A, the self-cleavage falls from 0.54 to 0.23.

Going from A28G C62G to A28G C62U, the self-cleavage rises from 0.21 to 0.27.

First: A28G C68A
Second: A28G C68G
The self-cleavage of the first is higher: 0.17 for the first, 0.14 for the second.

Going from A28G C68U to A28G C71A, the self-cleavage falls from 0.48 to 0.14.

Compared with A28G C71U, A28G C79U is higher in self-cleavage: 0.15 for the first, 0.88 for the second.

First: A28G C81A
Second: A28G C81G
The self-cleavage of the first is higher: 1 for the first, 0.42 for the second.

Going from A28G C81U to A28G G30A, the self-cleavage falls from 0.75 to 0.2.

Going from A28G G30C to A28G G33A, the self-cleavage falls from 0.32 to 0.22.

First: A28G G33U
Second: A28G G36A
The self-cleavage of the first is higher: 0.16 for the first, 0.15 for the second.

Going from A28G G36U to A28G G42A, the self-cleavage rises from 0.15 to 0.46.

Going from A28G G42C to A28G G42U, the self-cleavage rises from 0.18 to 0.26.

Compared with A28G G46A, A28G G46C is lower in self-cleavage: 0.09 for the first, 0.08 for the second.

First: A28G G52A
Second: A28G G52C
The self-cleavage of the first is higher: 0.76 for the first, 0.42 for the second.

Going from A28G G53A to A28G G55A, the self-cleavage falls from 0.78 to 0.33.

First: A28G G55C
Second: A28G G55U
The self-cleavage of the first is lower: 0.39 for the first, 0.68 for the second.

First: A28G G61A
Second: A28G G61C
The self-cleavage of the first is higher: 0.38 for the first, 0.15 for the second.

Compared with A28G G61U, A28G G63A is lower in self-cleavage: 0.5 for the first, 0.38 for the second.

Compared with A28G G63U, A28G G70A is lower in self-cleavage: 0.8 for the first, 0.23 for the second.

First: A28G G73A
Second: A28G G73C
The self-cleavage of the first is lower: 1.16 for the first, 1.29 for the second.

Compared with A28G G73U, A28G U31A is lower in self-cleavage: 1.26 for the first, 0.33 for the second.

Going from A28G U31C to A28G U31G, the self-cleavage falls from 0.48 to 0.25.

First: A28G U41A
Second: A28G U41C
The self-cleavage of the first is lower: 0.27 for the first, 0.6 for the second.

Compared with A28G U41G, A28G U43A is higher in self-cleavage: 0.15 for the first, 0.86 for the second.

Going from A28G U43C to A28G U43G, the self-cleavage falls from 0.35 to 0.17.

Going from A28G U48A to A28G U48C, the self-cleavage rises from 0.26 to 0.29.

Compared with A28G U48G, A28G U49A is lower in self-cleavage: 0.43 for the first, 0.31 for the second.

Going from A28G U49C to A28G U51A, the self-cleavage rises from 0.22 to 0.63.

Going from A28G U51C to A28G U51G, the self-cleavage falls from 0.62 to 0.45.

Compared with A28G U54A, A28G U54C is lower in self-cleavage: 0.6 for the first, 0.58 for the second.

Compared with A28G U54G, A28G U58A is lower in self-cleavage: 0.41 for the first, 0.24 for the second.

Compared with A28G U58C, A28G U58G is higher in self-cleavage: 0.27 for the first, 0.46 for the second.

Compared with A28G U60A, A28G U60C is lower in self-cleavage: 0.32 for the first, 0.25 for the second.

Compared with A28G U60G, A28G U66A is higher in self-cleavage: 0.16 for the first, 0.31 for the second.

First: A28G U66C
Second: A28G U66G
The self-cleavage of the first is higher: 0.26 for the first, 0.2 for the second.

Compared with A28G U67A, A28G U67C is lower in self-cleavage: 0.27 for the first, 0.17 for the second.

Going from A28G U67G to A28G U69A, the self-cleavage rises from 0.17 to 0.29.

Going from A28G U69C to A28G U69G, the self-cleavage rises from 0.25 to 0.48.

Going from A28G U72A to A28G U72C, the self-cleavage rises from 0.3 to 0.67.

First: A28G U72G
Second: A28G U74A
The self-cleavage of the first is lower: 0.56 for the first, 1.06 for the second.

Compared with A28G U74C, A28G U74G is higher in self-cleavage: 1 for the first, 1.08 for the second.

Compared with A28G U76A, A28G U76C is higher in self-cleavage: 0.61 for the first, 0.67 for the second.

Going from A28G U76G to A28G U78A, the self-cleavage rises from 0.56 to 0.71.

Going from A28G U78C to A28G U78G, the self-cleavage rises from 0.61 to 0.67.

Compared with A28G U80A, A28G U80C is higher in self-cleavage: 0.72 for the first, 0.81 for the second.

Compared with A28U, A28U A35C is lower in self-cleavage: 0.81 for the first, 0.47 for the second.

Going from A28U A35G to A28U A35U, the self-cleavage falls from 1.22 to 0.35.

Compared with A28U A45C, A28U A45G is higher in self-cleavage: 0.25 for the first, 0.47 for the second.

Compared with A28U A45U, A28U A47G is higher in self-cleavage: 0.4 for the first, 0.89 for the second.

Compared with A28U A47U, A28U A56G is lower in self-cleavage: 0.67 for the first, 0.53 for the second.

Going from A28U A56U to A28U A57G, the self-cleavage rises from 0.57 to 0.64.

Going from A28U A57U to A28U A64C, the self-cleavage falls from 0.5 to 0.34.

Going from A28U A64G to A28U A64U, the self-cleavage falls from 0.63 to 0.31.

First: A28U A65G
Second: A28U A65U
The self-cleavage of the first is higher: 0.35 for the first, 0.33 for the second.

First: A28U A75G
Second: A28U A75U
The self-cleavage of the first is lower: 0.71 for the first, 0.99 for the second.

Going from A28U A77G to A28U A77U, the self-cleavage rises from 0.8 to 0.85.

Compared with A28U C29G, A28U C29U is higher in self-cleavage: 0.1 for the first, 0.48 for the second.

Compared with A28U C32A, A28U C32U is lower in self-cleavage: 0.19 for the first, 0.17 for the second.

Going from A28U C37U to A28U C38U, the self-cleavage rises from 0.41 to 0.48.

First: A28U C39A
Second: A28U C39G
The self-cleavage of the first is lower: 0.15 for the first, 0.27 for the second.

Going from A28U C39U to A28U C40A, the self-cleavage falls from 0.48 to 0.47.

Compared with A28U C40G, A28U C40U is higher in self-cleavage: 0.19 for the first, 0.59 for the second.

Compared with A28U C50A, A28U C50G is higher in self-cleavage: 0.53 for the first, 0.74 for the second.

Compared with A28U C50U, A28U C59A is lower in self-cleavage: 0.8 for the first, 0.21 for the second.

First: A28U C59U
Second: A28U C62A
The self-cleavage of the first is higher: 0.34 for the first, 0.33 for the second.

First: A28U C62U
Second: A28U C68A
The self-cleavage of the first is lower: 0.19 for the first, 0.32 for the second.

Going from A28U C71U to A28U C79U, the self-cleavage rises from 0.39 to 0.99.

Going from A28U C81A to A28U C81U, the self-cleavage rises from 0.84 to 0.86.

First: A28U G30A
Second: A28U G30U
The self-cleavage of the first is lower: 0.11 for the first, 0.2 for the second.

Going from A28U G33A to A28U G33C, the self-cleavage rises from 0.2 to 0.26.

Going from A28U G33U to A28U G36A, the self-cleavage falls from 0.14 to 0.08.

Compared with A28U G36C, A28U G36U is higher in self-cleavage: 0.37 for the first, 0.41 for the second.

First: A28U G42A
Second: A28U G42C
The self-cleavage of the first is lower: 0.27 for the first, 0.28 for the second.

Going from A28U G42U to A28U G46A, the self-cleavage rises from 0.21 to 0.46.

First: A28U G46U
Second: A28U G52A
The self-cleavage of the first is lower: 0.14 for the first, 0.83 for the second.

In the case of A28U G53A, the self-cleavage is reported as 0.87.

From the RNAGym collection of RNA variant scans (doi:10.1093/nar/gkz1192)
